Measured values as given in article PMC10450195.

Key:
[1] = test system: LANA peptide (Kaposi's Sarcoma Herpesvirus); assay: fluorescence polarization; settings: FP: 20 mM HEPES pH 7.5, 150 mM NaCl, 0.5 mM EDTA, 1 mM DTT, 0.05% Triton X-100, 20 C, 50 nM peptide, EMSA: 15 mM HEPES pH 7.5, 150 mM NaCl
[2] = target: Homo sapiens nucleosome core particle (human) (UniProt P68431); assay: fluorescence polarisation

Row | Substance | Kd [1] [nM] | Kd [2] [nM]
1 | H. sapiens NCP | 2380 | 
2 | Kaposi's Sarcoma Herpesvirus Latency Associated Nuclear Antigen (LANA) peptide, aa. 4-23 |  | 2380
